{"source": "paper PMC12042792", "about": "“Discovery of two novel cutinases from a gut yeast of plastic-eating mealworm for polyester depolymerization” (Applied and Environmental Microbiology, 2025)", "test_in_all_cases": "purified protein", "format_in_all_cases": "biochemical, Sakaguchia sp.", "key": {"purified protein [1]": {"substrate": "CCCCCC(=O)Oc1ccc([N+](=O)[O-])cc1"}, "purified protein [2]": {"substrate": "CCCC(=O)Oc1ccc([N+](=O)[O-])cc1"}, "purified protein [3]": {"substrate": "CCCCCCCCCC(=O)Oc1ccc([N+](=O)[O-])cc1"}, "purified protein [4]": {"substrate": "CCCCCCCCCCCCCC(=O)Oc1ccc([N+](=O)[O-])cc1"}, "purified protein [5]": {"substrate": "CCCCCCCCCCCC(=O)Oc1ccc([N+](=O)[O-])cc1"}, "purified protein [6]": {"substrate": "CC(=O)Oc1ccc([N+](=O)[O-])cc1"}, "purified protein [7]": {"substrate": "CCCCCCCCCCCCCCCC(=O)Oc1ccc([N+](=O)[O-])cc1"}, "purified protein [8]": {"substrate": "CCCCCCCC(=O)Oc1ccc([N+](=O)[O-])cc1"}, "[9]": {"conditions": "50 mM Tris-HCl pH 7.5, optimal temperature (45 °C)"}, "[10]": {"conditions": "50 mM Tris-HCl pH 7.5, optimal temperature (35 °C)"}}}
{"protein": "SiCut2 (Sakaguchia sp.) (protein, no tag mentioned; diafiltered culture supernatant) TAIGERQLGCAPLELFHAAGTSEVGQGIIGRAYQSALPRAVSGATVTPVIYSTIAEYFTTVRAGAQTMQRQLTSRAAACPNTKFVLSGYSKGALVVHEVKLPAAIQSKVVAVTLFGDPKNGQFGSSVVPINNKACFFSFCNRGDVFCDRGISLAAHLAYATDGSVTTAARNIAECFNA", "values": [{"measurement": "Km", "setting": "purified protein [1]; [9]", "result": "1.44 ± 1.51", "unit": "µM"}, {"measurement": "kcat", "setting": "purified protein [1]; [9]", "result": "1.26 ± 0.0175", "unit": "s⁻¹"}, {"measurement": "kcat/Km", "setting": "purified protein [1]; [9]", "result": "875000 ± 11700", "unit": "M⁻¹ s⁻¹"}, {"measurement": "Km", "setting": "purified protein [2]; [9]", "result": "2.82 ± 0.58", "unit": "µM"}, {"measurement": "kcat", "setting": "purified protein [2]; [9]", "result": "1.13 ± 0.066", "unit": "s⁻¹"}, {"measurement": "kcat/Km", "setting": "purified protein [2]; [9]", "result": "401000 ± 5000", "unit": "M⁻¹ s⁻¹"}, {"measurement": "Km", "setting": "purified protein [3]; [9]", "result": "2.47 ± 0.09", "unit": "µM"}, {"measurement": "kcat", "setting": "purified protein [3]; [9]", "result": "1.48 ± 0.0342", "unit": "s⁻¹"}, {"measurement": "kcat/Km", "setting": "purified protein [3]; [9]", "result": "600700 ± 667", "unit": "M⁻¹ s⁻¹"}, {"measurement": "Km", "setting": "purified protein [4]; [9]", "result": "4.44 ± 0.5", "unit": "µM"}, {"measurement": "kcat", "setting": "purified protein [4]; [9]", "result": "0.832 ± 0.0117", "unit": "s⁻¹"}, {"measurement": "kcat/Km", "setting": "purified protein [4]; [9]", "result": "187000 ± 10000", "unit": "M⁻¹ s⁻¹"}, {"measurement": "Km", "setting": "purified protein [5]; [9]", "result": "2.22 ± 1.9", "unit": "µM"}, {"measurement": "kcat", "setting": "purified protein [5]; [9]", "result": "0.983 ± 0.035", "unit": "s⁻¹"}, {"measurement": "kcat/Km", "setting": "purified protein [5]; [9]", "result": "443000 ± 4330", "unit": "M⁻¹ s⁻¹"}, {"measurement": "Km", "setting": "purified protein [6]; [9]", "result": "6.18 ± 0.49", "unit": "µM"}, {"measurement": "kcat", "setting": "purified protein [6]; [9]", "result": "0.665 ± 0.07", "unit": "s⁻¹"}, {"measurement": "kcat/Km", "setting": "purified protein [6]; [9]", "result": "108000 ± 11300", "unit": "M⁻¹ s⁻¹"}, {"measurement": "Km", "setting": "purified protein [7]; [9]", "result": "4.01 ± 1.3", "unit": "µM"}, {"measurement": "kcat", "setting": "purified protein [7]; [9]", "result": "0.603 ± 0.0417", "unit": "s⁻¹"}, {"measurement": "kcat/Km", "setting": "purified protein [7]; [9]", "result": "150000 ± 3830", "unit": "M⁻¹ s⁻¹"}, {"measurement": "Km", "setting": "purified protein [8]; [9]", "result": "0.89 ± 0.12", "unit": "µM"}, {"measurement": "kcat", "setting": "purified protein [8]; [9]", "result": "2.079 ± 0.0025", "unit": "s⁻¹"}, {"measurement": "kcat/Km", "setting": "purified protein [8]; [9]", "result": "2.344e+06 ± 13800", "unit": "M⁻¹ s⁻¹"}]}
{"protein": "SiCut1 (Sakaguchia sp.) (protein, no tag mentioned; diafiltered culture supernatant) AAIAERQSSACAPLELYHAAGTSESGLGTVGRAFQTALPREVQGATVSPLNYNTNAEYSSTVTAGAQTFQQLLTSRAAACPNTKFVLSGYSKGALVVHKVTLPSAVQSKVVAITVFGDPQAGQFGATTVPINNKACFFSFCNRGDTFCDRGGNFAAHLAYATDGSVTTASRNIAGCYRA", "values": [{"measurement": "Km", "setting": "purified protein [1]; [10]", "result": "0.66 ± 2.77", "unit": "µM"}, {"measurement": "kcat", "setting": "purified protein [1]; [10]", "result": "0.8588 ± 0.00717", "unit": "s⁻¹"}, {"measurement": "kcat/Km", "setting": "purified protein [1]; [10]", "result": "1.305e+06 ± 1830", "unit": "M⁻¹ s⁻¹"}, {"measurement": "Km", "setting": "purified protein [2]; [10]", "result": "1.73 ± 0.99", "unit": "µM"}, {"measurement": "kcat", "setting": "purified protein [2]; [10]", "result": "0.796 ± 0.00367", "unit": "s⁻¹"}, {"measurement": "kcat/Km", "setting": "purified protein [2]; [10]", "result": "459800 ± 2330", "unit": "M⁻¹ s⁻¹"}, {"measurement": "Km", "setting": "purified protein [3]; [10]", "result": "7.57 ± 0.01", "unit": "µM"}, {"measurement": "kcat", "setting": "purified protein [3]; [10]", "result": "0.672 ± 0.026", "unit": "s⁻¹"}, {"measurement": "kcat/Km", "setting": "purified protein [3]; [10]", "result": "88800 ± 3170", "unit": "M⁻¹ s⁻¹"}, {"measurement": "Km", "setting": "purified protein [4]; [10]", "result": "3.46 ± 0.02", "unit": "µM"}, {"measurement": "kcat", "setting": "purified protein [4]; [10]", "result": "0.213 ± 0.00217", "unit": "s⁻¹"}, {"measurement": "kcat/Km", "setting": "purified protein [4]; [10]", "result": "61700 ± 1330", "unit": "M⁻¹ s⁻¹"}, {"measurement": "Km", "setting": "purified protein [5]; [10]", "result": "3.21 ± 0.63", "unit": "µM"}, {"measurement": "kcat", "setting": "purified protein [5]; [10]", "result": "0.7233 ± 0.00283", "unit": "s⁻¹"}, {"measurement": "kcat/Km", "setting": "purified protein [5]; [10]", "result": "225000 ± 500", "unit": "M⁻¹ s⁻¹"}, {"measurement": "Km", "setting": "purified protein [6]; [10]", "result": "9.12 ± 0.04", "unit": "µM"}, {"measurement": "kcat", "setting": "purified protein [6]; [10]", "result": "0.3212 ± 0.00267", "unit": "s⁻¹"}, {"measurement": "kcat/Km", "setting": "purified protein [6]; [10]", "result": "35200 ± 3000", "unit": "M⁻¹ s⁻¹"}, {"measurement": "Km", "setting": "purified protein [7]; [10]", "result": "7.09 ± 0.27", "unit": "µM"}, {"measurement": "kcat", "setting": "purified protein [7]; [10]", "result": "0.2155 ± 0.002", "unit": "s⁻¹"}, {"measurement": "kcat/Km", "setting": "purified protein [7]; [10]", "result": "30300 ± 2170", "unit": "M⁻¹ s⁻¹"}, {"measurement": "Km", "setting": "purified protein [8]; [10]", "result": "2.01 ± 0.63", "unit": "µM"}, {"measurement": "kcat", "setting": "purified protein [8]; [10]", "result": "1.002 ± 0.00267", "unit": "s⁻¹"}, {"measurement": "kcat/Km", "setting": "purified protein [8]; [10]", "result": "501000 ± 1500", "unit": "M⁻¹ s⁻¹"}]}
